The text below walks through data of patent US20210032343A1 (BEIJING HANMI PHARMACEUTICAL, published 2021).

The assay addresses recombinant human PD-1 (product No. 10377-H08H, Beijing Yiqiao Shenzhou) (human, UniProt Q15116 25-167). The assay is described as follows: ELISA, recombinant human PD-1 coated at 1 ug/mL, control antibody, anti-human IgG-HRP detection.

Sequence of recombinant human PD-1 (product No. 10377-H08H, Beijing Yiqiao Shenzhou) (Q15116 25-167 limits assumed): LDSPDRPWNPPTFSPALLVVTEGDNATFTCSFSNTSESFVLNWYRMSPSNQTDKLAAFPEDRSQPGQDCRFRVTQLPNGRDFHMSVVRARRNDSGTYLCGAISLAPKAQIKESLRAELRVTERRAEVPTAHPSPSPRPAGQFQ
Description: The coating concentration was 1 μg/mL. The coating amount was 100 μL per well, and the coating was performed at 4° C. overnight. PBST washing was performed five times. The result was sealed at 300 μL/well using PBST containing 1% BSA, and subjected to incubation for 1 hour at 25° C. PBST washing was performed five times. […] PBST washing was performed five times. Subsequently, 100 μL of the horseradish peroxidase-labeled anti-human IgG antibody (product No. AP309P, available from Chemicon) diluted at 1:2,000 in PBST containing 1% BSA was then added to each well, and the cells were incubated for 1 hour at 25° C. PBST washing was performed five times. 100 μL of the colorimetric substrate TMB was added to each well, and color development was allowed to occur for 10 minutes at room temperature. Color development was stopped by adding 100 μL of 1 M H₂SO₄ to each well. The absorbance at 450 nm was read on a microplate reader.

B1: PD-1 monoclonal antibody (antibody, V domains shown)
VH: QVQLVQSGAEVKKPGSSVKVSCKASGGTFSSTAISWVRQAPGQGLEWMGGIWPSFGTASYAQKFQGRVTITADESTSTAYMELSSLRSEDTAVYYCARAEYSSTGIFDYWGQGTLVTVSS
VL: DIQMTQSPSSVSASVGDRVTITCRASQGISSWLAWYQQKPGKAPKLLISAASSLQSGVPSRFSGSGSGTDFTLTISSLQPEDFATYYCQQANHLPFTFGGGTKVEIK
notes: also called bivalent monoclonal antibody (anti-PD-1)
Turning to B1, the binding result is listed as “binds”.
